Assays:
RhoA [1] = experiment: GST-Rhotekin-RBD pull-down assay of calpeptin treated HeLa cell lysates; assay type: cell-based; conditions: calpeptin 30 minutes, 500 μg lysate
RhoA [2] = experiment: RhoA G-LISA of calpeptin treated HeLa cell lysates; assay type: cell-based; conditions: calpeptin 30 minutes
Procedure: Active Rho protein (typically 7-15 μg total cell lysate or 1-5 ng of constitutively active recombinant protein) were either added directly to the effector bound G-LISA plate (Rac1 and Cdc42 G-LISAs) or diluted with an equal volume of Binding Buffer (20% PEG 8000, Sigma, St. Louis, Mo.) prior to adding to effector bound plates (RhoA G-LISA). The reactions were incubated for 30 minutes at 4° C. on a microtiter titer plate shaker after which wells were washed once with 200 μl of PBST (PBS pH 7.2, 0.05% Tween-20) and immediately treated with 200 μl of Antigen Presenting Buffer (1% trichloroacetic acid (TCA)) for 2-5 minutes at room temperature. Wells were then washed three times with 200 μl each of PBST and primary antibody is added typically at 1 μg/ml (RhoA specific), 0.25 μg/ml (Rac1 specific), 1 μg/ml (Cdc42 specific) and incubated at room temperature for 45 minutes (incubation at 4° C. gave similar results). […] After three washes each of 200 μl PBST the activated Rho proteins are detected using absorbance or luminescence detection as described below. […]
Referring to FIG. 10, 25 μl of serum starved or Calpeptin treated (RhoA activated) Hela cell lysate at concentration of 4, 2, 1, 0.5, 0.25, 0.12, 0.06 mg/ml were mixed with same volume of Binding Buffer and subjected to RhoA G-LISA assay followed by absorbance detection. […] All readings had buffer only background subtracted. […]

Rac1 (61L) = target: T1, Rac1 (61L) (Homo sapiens, UniProt P63000, Q61L); experiment: G-LISA on effector-GBD plates with constitutively active Rac1; assay type: binding; conditions: 5 ng constitutively active Rac1; detection with the plate's GTPase specific antibody
T1 construct: His; purchased Cytoskeleton Inc. R6101
Procedure: (§1) Effector-GBD peptide (ROCK1, POSH or WASP, see Table 2) was diluted in coating buffer (PBS pH 7.2, plus 1 mM EDTA) to a final concentration 0.05 mg/ml and 5 μg of peptide was added to the wells of maleimide plates (Corning Inc., Catalog #2510). Plates were incubated at 21° C. for 2 hours, washed twice in PBS pH 7.2. Plates were blocked for 1 hour at room temperature with milk (typically 0.1-5%, depending upon effector-GBD). After two washes with PBS (pH 7.2), Lyophilization Buffer was added to each well (5% sucrose and 1% dextran) and the plates were lyophilized and stored desiccated at 4° C. […]
(§2) Active Rho protein (typically 7-15 μg total cell lysate or 1-5 ng of constitutively active recombinant protein) were either added directly to the effector bound G-LISA plate (Rac1 and Cdc42 G-LISAs) or diluted with an equal volume of Binding Buffer (20% PEG 8000, Sigma, St. Louis, Mo.) prior to adding to effector bound plates (RhoA G-LISA). […] After three washes each of 200 μl PBST the activated Rho proteins are detected using absorbance or luminescence detection as described below.
Referring to FIG. 2B, lysis buffer only (Blank), 5 ng of Rac1 (61L), or RhoA (63L) were subjected to a Rac1 G-LISA assay as detailed in materials and methods (Example 2), and Rac1 signal was detected by absorbance at 490 nm as described in materials and methods (Example 2). […]

Cdc42 (61L) = target: T2, Cdc42 (61L) (Homo sapiens, UniProt P60953, Q61L); experiment: G-LISA on effector-GBD plates with constitutively active Cdc42; assay type: binding; conditions: 5 ng constitutively active Cdc42; detection with the plate's GTPase specific antibody
T2 construct: His; purchased Cytoskeleton Inc. C6101
T2 sequence (P60953 whole entry Q61L): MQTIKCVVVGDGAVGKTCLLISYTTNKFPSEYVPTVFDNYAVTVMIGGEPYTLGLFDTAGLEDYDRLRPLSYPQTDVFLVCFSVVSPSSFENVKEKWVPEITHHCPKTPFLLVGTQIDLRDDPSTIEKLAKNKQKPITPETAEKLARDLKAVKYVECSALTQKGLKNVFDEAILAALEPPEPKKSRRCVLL
Procedure: as §1, §2
Referring to FIG. 2C, lysis buffer only (Blank), 5 ng of Cdc42 (61L) or Rac1 (61L) were subjected to a Cdc42 G-LISA assay as detailed in materials and methods (Example 2), and Cdc42 signal was detected by absorbance at 490 nm as described in materials and methods (Example 2).

RhoA (63L) = target: T3, RhoA (63L) (Homo sapiens, UniProt P61586, Q63L); experiment: G-LISA on effector-GBD plates with constitutively active RhoA; assay type: binding; conditions: 5 ng constitutively active RhoA; detection with the plate's GTPase specific antibody
T3 construct: purchased Cytoskeleton Inc. R6301
T3 sequence (P61586 whole entry Q63L): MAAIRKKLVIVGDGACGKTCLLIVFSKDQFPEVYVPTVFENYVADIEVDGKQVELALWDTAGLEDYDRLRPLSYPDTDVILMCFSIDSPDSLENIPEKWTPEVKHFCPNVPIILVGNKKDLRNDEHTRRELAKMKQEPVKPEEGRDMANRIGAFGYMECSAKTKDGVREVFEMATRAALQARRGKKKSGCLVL
Procedure: as §1, §2
Referring to FIG. 2A, lysis buffer only (Blank), 5 ng of RhoA (63L), Cdc42 (61L) or Rac1 (61L) were subjected to a RhoA G-LISA assay as detailed in materials and methods, and RhoA signal was detected by luminometry as described in materials and methods. […]

Rac1 = Rac1 (Homo sapiens, UniProt P63000); conditions: read-out: published affinity Rac1:PAK; cited from earlier work

CCCC[C@@H](C=O)NC(=O)[C@H](CC(C)C)NC(=O)OCc1ccccc1 [calpeptin]
RhoA fold activation above serum starved lysate, pull-down densitometry (RhoA [1]): approximately 2 fold | RhoA fold activation versus serum starved, G-LISA (RhoA [2]; lysate 0.25 mg/ml to 2 mg/ml (6.25-50 μg)): approximately 2 fold | RhoA fold activation versus serum starved, G-LISA (RhoA [2]; lysate 4 mg/ml (100 μg)): 1.7 fold

B1: ROCK1-GBD: Histidine-tagged GBD of human ROCK1 (amino acids 847-1024), carboxy terminal cysteine, linked to maleimide plate (protein)
chain: EAEQYFSTLYKTQVKELKEEIEEKNRENLKKIQELQNEKETLATQLDLAETKAESEQLARGLLEEQYFELTQESKKAASRNRQEITDKDHTVSRLEEANSMLTKDIEILRRENEELTEKMKKAEEEYKLEKEEEISNLKAAFEKNINTERTLKTQAVNKLAEIMNRKDFKIDRKKANTC
modifications: left off: small tags and cut ends
G-LISA signal above background (buffer only) (Rac1 (61L)): did not give a signal above background | G-LISA signal above background (buffer only) (Cdc42 (61L)): did not give a signal above background

B2: WASP: Histidine-tagged GBD of human WASP (amino acids 201-321), carboxy terminal cysteine, linked to maleimide plate (protein)
chain: DIQNPDITSSRYRGLPAPGPSPADKKRSGKKKISKADIGAPSGFKHVSHVGWDPQNGFDVNNLDPDLRSLFSRAGISEAQLTDAETSKLIYDFIEDQGGLEAVRQEMRRQEPLPPPPPPSRC
modifications: left off: small tags and cut ends
notes: Histidine-tagged GBD of human WASP (amino acids 201-321), carboxy terminal cysteine, linked to maleimide plate
G-LISA signal above background (buffer only) (Rac1 (61L)): did not give a signal above background

B3: rhotekin-Cys: synthetic rhotekin-GBD, three internal cysteines replaced, cysteine at carboxy terminal (protein)
chain: ILEDLNMLYIRQMALSLEDTELQRKLDHEIRMRDGAEKLLAALSQREQALEATKSLLVSNSRILSYMGELQRRKEAQVLEKTGRRCS
G-LISA signal above background (buffer only) (RhoA (63L)): 6 fold

B4: PAK-GST: GST-tagged GTPase Binding Domain of human PAK1 (amino acids 68-151), Rac1/Cdc42 effector (protein)
chain: KEKERPEISLPSDFEHTIHVGFDAVTGEFTGMPEQWARLLQTSNITKSEQKKNPQAVLDVLEFYNSKKTSNSQKYMSFTDKSAEC
modifications: left off: a dimerising Fc or GST
Kd (Rac1): ~20 nM

B5: POSH: Histidine-tagged GBD of human POSH (amino acids 291-363) linked to maleimide plate (protein, UniProt Q7Z6J0 1-888, looked up)
E3 ubiquitin-protein ligase …: MDESALLDLLECPVCLERLDASAKVLPCQHTFCKRCLLGIVGSRNELRCPECRTLVGSGVEELPSNILLVRLLDGIKQRPWKPGPGGGSGTNCTNALRSQSSTVANCSSKDLQSSQGGQQPRVQSWSPPVRGIPQLPCAKALYNYEGKEPGDLKFSKGDIIILRRQVDENWYHGEVNGIHGFFPTNFVQIIKPLPQPPPQCKALYDFEVKDKEADKDCLPFAKDDVLTVIRRVDENWAEGMLADKIGIFPISYVEFNSAAKQLIEWDKPPVPGVDAGECSSAAAQSSTAPKHSDTKKNTKKRHSFTSLTMANKSSQASQNRHSMEISPPVLISSSNPTAAARISELSGLSCSAPSQVHISTTGLIVTPPPSSPVTTGPSFTFPSDVPYQAALGTLNPPLPPPPLLAATVLASTPPGATAAAAAAGMGPRPMAGSTDQIAHLRPQTRPSVYVAIYPYTPRKEDELELRKGEMFLVFERCQDGWFKGTSMHTSKIGVFPGNYVAPVTRAVTNASQAKVPMSTAGQTSRGVTMVSPSTAGGPAQKLQGNGVAGSPSVVPAAVVSAAHIQTSPQAKVLLHMTGQMTVNQARNAVRTVAAHNQERPTAAVTPIQVQNAAGLSPASVGLSHHSLASPQPAPLMPGSATHTAAISISRASAPLACAAAAPLTSPSITSASLEAEPSGRIVTVLPGLPTSPDSASSACGNSSATKPDKDSKKEKKGLLKLLSGASTKRKPRVSPPASPTLEVELGSAELPLQGAVGPELPPGGGHGRAGSCPVDGDGPVTTAVAGAALAQDAFHRKASSLDSAVPIAPPPRQACSSLGPVLNESRPVVCERHRVVVSYPPQSEAELELKEGDIVFVHKKREDGWFKGTLQRNGKTGLFPGSFVENI
G-LISA signal above background (buffer only) (RhoA (63L)): barely above background

Source: US7763418B2, “Detection of Rho proteins” (Cytoskeleton, Inc., priority 2005, dated 2010)
